Data: paper PMC8855348

Molecular target: T1, RAD51AP1 WT (UniProt Q96B01 1-352)
T1 sequence: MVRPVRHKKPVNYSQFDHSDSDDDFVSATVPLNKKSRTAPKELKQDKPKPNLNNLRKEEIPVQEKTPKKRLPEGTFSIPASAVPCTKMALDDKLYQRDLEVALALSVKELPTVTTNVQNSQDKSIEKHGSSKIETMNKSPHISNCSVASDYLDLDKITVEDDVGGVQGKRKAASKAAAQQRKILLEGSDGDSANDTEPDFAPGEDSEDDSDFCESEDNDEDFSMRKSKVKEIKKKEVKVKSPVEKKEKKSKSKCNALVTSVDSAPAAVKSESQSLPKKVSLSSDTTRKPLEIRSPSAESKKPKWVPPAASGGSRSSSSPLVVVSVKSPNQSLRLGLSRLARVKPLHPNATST
Assay: EMSA

B1: 63-nt ssRNA (ssRNA)
RNA: AACUUGGUCUGACAGUUACCAAUGCUUAAUCAGUGAGGCACCUAUCUCAGCGAUCUGUCUAUU
- binding result: binds

B2: 50-nt DNA-RNA hybrid (DNA:RNA)
DNA: ATCATCACCATAACGTCGATGTATCAACTTCGATTAGTCACACCAATTAA
RNA: UUAAUUGGUGUGACUAAUCGAAGUUGAUACAUCGACGUUAUGGUGAUGAU
- binding result: binds
